From paper doi:10.1101/699967 (bioRxiv, 2019)

Molecular target: HaloTag-Brd4-BD1_BD2-NanoLuc (aa 44-460) (human, UniProt O60885 44-460, HaloTag NanoBRET 618 fluorescent ligand on the HaloTag (experimental samples))
Assay: FRET or BRET

B1: H4(1-19)K5/8/16-triacetyl histone peptide (peptide)
peptide: SGRGKGGKGLGKGGAKRHR
modifications: acetyl-lysine at 5, 8 and 16
B1 was tested. Which EC50 did it give?
The EC50 was 7.5 ± 3.5 µM.
